The results in this text go back to publication PMC6555819, “Comprehensive study of nuclear receptor DNA binding provides a revised framework for understanding receptor specificity”.

The labels stand for the following.
B1: NRC3_random_hg19_258_o1 (dsDNA)
DNA 1: GCGTAAGATGGCAGGTGCCCAGAGCTAAGCTTTGATGCGATTGACAGCGTAGAATGAAGG
DNA 2: CCTTCATTCTACGCTGTCAATCGCATCAAAGCTTAGCTCTGGGCACCTGCCATCTTACGC
B2: NRC3_random_hg19_261_o1 (dsDNA)
DNA 1: GCCTGGCTCCAGACAGACAAGAAGACTCCTTCAGTCGCGATTGACAGCGTAGAATGAAGG
DNA 2: CCTTCATTCTACGCTGTCAATCGCGACTGAAGGAGTCTTCTTGTCTGTCTGGAGCCAGGC
B3: NRC3_random_hg19_287_o1 (dsDNA)
DNA 1: GCTCACTCAGAAGAGCAGAGCGACAGTGAATCTGAGGCGATTGACAGCGTAGAATGAAGG
DNA 2: CCTTCATTCTACGCTGTCAATCGCCTCAGATTCACTGTCGCTCTGCTCTTCTGAGTGAGC
B4: NRC3_wobSeed134_DR5_G11T_o1 (dsDNA)
DNA 1: GCGCTGCTAGTTCAACTGATGGTCAGCTAAAGCTCGGCGATTGACAGCGTAGAATGAAGG
DNA 2: CCTTCATTCTACGCTGTCAATCGCCGAGCTTTAGCTGACCATCAGTTGAACTAGCAGCGC
B5: NRC3_random_hg19_12_o1 (dsDNA)
DNA 1: GCTTCCAGAATCAGACAATCACTGGGCTTGAACCAGGCGATTGACAGCGTAGAATGAAGG
DNA 2: CCTTCATTCTACGCTGTCAATCGCCTGGTTCAAGCCCAGTGATTGTCTGATTCTGGAAGC
B6: NRC3_random_hg19_272_o1 (dsDNA)
DNA 1: GCGTGCATTTGCTCCCAGAGGCTCTGCTCTTGCCCTGCGATTGACAGCGTAGAATGAAGG
DNA 2: CCTTCATTCTACGCTGTCAATCGCAGGGCAAGAGCAGAGCCTCTGGGAGCAAATGCACGC
B7: NRC3_wobSeed21_DR0_A19C_o1 (dsDNA)
DNA 1: GCCGTCAAAGTTCAAGGTCACGTAACAGAAAGCAGCGCGATTGACAGCGTAGAATGAAGG
DNA 2: CCTTCATTCTACGCTGTCAATCGCGCTGCTTTCTGTTACGTGACCTTGAACTTTGACGGC
B8: NRC3_random_hg19_145_o1 (dsDNA)
DNA 1: GCGCCCAGTAGTTTGAGACCAGCCTGGACAACATGGGCGATTGACAGCGTAGAATGAAGG
DNA 2: CCTTCATTCTACGCTGTCAATCGCCCATGTTGTCCAGGCTGGTCTCAAACTACTGGGCGC
B9: NRC3_random_hg19_163_o1 (dsDNA)
DNA 1: GCCAGTGAGCCGAGATCATGCCACTGCACTCCAGCCGCGATTGACAGCGTAGAATGAAGG
DNA 2: CCTTCATTCTACGCTGTCAATCGCGGCTGGAGTGCAGTGGCATGATCTCGGCTCACTGGC
B10: NRC3_random_hg19_255_o1 (dsDNA)
DNA 1: GCGGAGGGCAGGCAGGCCTGGAGGAGCATGTGGTGTGCGATTGACAGCGTAGAATGAAGG
DNA 2: CCTTCATTCTACGCTGTCAATCGCACACCACATGCTCCTCCAGGCCTGCCTGCCCTCCGC
B11: NRC3_random_hg19_94_o1 (dsDNA)
DNA 1: GCACTATCTTGTGTCTCATCTGAGACATAGATGGATGCGATTGACAGCGTAGAATGAAGG
DNA 2: CCTTCATTCTACGCTGTCAATCGCATCCATCTATGTCTCAGATGAGACACAAGATAGTGC
B12: NRC3_wobSeed120_DR4_T8A_o1 (dsDNA)
DNA 1: GCCCGAGAAGGTTACGAGGGGGCATTCAGTGCGAATGCGATTGACAGCGTAGAATGAAGG
DNA 2: CCTTCATTCTACGCTGTCAATCGCATTCGCACTGAATGCCCCCTCGTAACCTTCTCGGGC
B13: NRC3_random_hg19_203_o1 (dsDNA)
DNA 1: GCGATGTAACAATGCAGGGTGGTCTTGGTCTTTGGCGCGATTGACAGCGTAGAATGAAGG
DNA 2: CCTTCATTCTACGCTGTCAATCGCGCCAAAGACCAAGACCACCCTGCATTGTTACATCGC
B14: NRC3_random_hg19_442_o1 (dsDNA)
DNA 1: GCTACGGAGTGCTGATCAGTCAGGTTGGAGATGGAAGCGATTGACAGCGTAGAATGAAGG
DNA 2: CCTTCATTCTACGCTGTCAATCGCTTCCATCTCCAACCTGACTGATCAGCACTCCGTAGC
B15: NRC3_random_hg19_129_o1 (dsDNA)
DNA 1: GCGAAGTTTAGAAACTTGCCCTAAGTCACCTAACTAGCGATTGACAGCGTAGAATGAAGG
DNA 2: CCTTCATTCTACGCTGTCAATCGCTAGTTAGGTGACTTAGGGCAAGTTTCTAAACTTCGC
B16: NRC3_random_hg19_431_o1 (dsDNA)
DNA 1: GCAGCCATATGCAAATGAGTACATCCTGTGTGATTCGCGATTGACAGCGTAGAATGAAGG
DNA 2: CCTTCATTCTACGCTGTCAATCGCGAATCACACAGGATGTACTCATTTGCATATGGCTGC
B17: NRC3_random_hg19_69_o1 (dsDNA)
DNA 1: GCCCAGGTGGCAGGATCCCTGCATCTGGTTTCCTCAGCGATTGACAGCGTAGAATGAAGG
DNA 2: CCTTCATTCTACGCTGTCAATCGCTGAGGAAACCAGATGCAGGGATCCTGCCACCTGGGC
B18: NRC3_random_hg19_234_o1 (dsDNA)
DNA 1: GCTAACTGGCACCTTTGGGAACTACATGTTTCCTGTGCGATTGACAGCGTAGAATGAAGG
DNA 2: CCTTCATTCTACGCTGTCAATCGCACAGGAAACATGTAGTTCCCAAAGGTGCCAGTTAGC
B19: NRC3_random_hg19_57_o1 (dsDNA)
DNA 1: GCTAGCTGAGACTACATGCCACCATGCCTGGCTAATGCGATTGACAGCGTAGAATGAAGG
DNA 2: CCTTCATTCTACGCTGTCAATCGCATTAGCCAGGCATGGTGGCATGTAGTCTCAGCTAGC
B20: NRC3_random_hg19_311_o1 (dsDNA)
DNA 1: GCTCACTTATGAAGCTTAGGTTGGCTGGATATGAAAGCGATTGACAGCGTAGAATGAAGG
DNA 2: CCTTCATTCTACGCTGTCAATCGCTTTCATATCCAGCCAACCTAAGCTTCATAAGTGAGC
B21: NRC3_random_hg19_425_o1 (dsDNA)
DNA 1: GCCTGTTAGGTTGATTCTATGTCTTGGCTATTGTGTGCGATTGACAGCGTAGAATGAAGG
DNA 2: CCTTCATTCTACGCTGTCAATCGCACACAATAGCCAAGACATAGAATCAACCTAACAGGC
B22: NRC3_random_hg19_430_o1 (dsDNA)
DNA 1: GCGAAGGACCTTTAGATCCTGAGACAGAACTTAGGCGCGATTGACAGCGTAGAATGAAGG
DNA 2: CCTTCATTCTACGCTGTCAATCGCGCCTAAGTTCTGTCTCAGGATCTAAAGGTCCTTCGC
B23: NRC3_wobSeed42_DR1_A6T_o1 (dsDNA)
DNA 1: GCTATTCAGGGTCAAAGGCCAGAGTACGAATGTCGAGCGATTGACAGCGTAGAATGAAGG
DNA 2: CCTTCATTCTACGCTGTCAATCGCTCGACATTCGTACTCTGGCCTTTGACCCTGAATAGC
B24: NRC3_wobSeed29_DR1_G9A_o1 (dsDNA)
DNA 1: GCGCTTACAGGTCAAAGGTTATAGCATGAATAGAATGCGATTGACAGCGTAGAATGAAGG
DNA 2: CCTTCATTCTACGCTGTCAATCGCATTCTATTCATGCTATAACCTTTGACCTGTAAGCGC

Sequence of RARb:RXRa (P10826 whole entry, chain 1 of 2): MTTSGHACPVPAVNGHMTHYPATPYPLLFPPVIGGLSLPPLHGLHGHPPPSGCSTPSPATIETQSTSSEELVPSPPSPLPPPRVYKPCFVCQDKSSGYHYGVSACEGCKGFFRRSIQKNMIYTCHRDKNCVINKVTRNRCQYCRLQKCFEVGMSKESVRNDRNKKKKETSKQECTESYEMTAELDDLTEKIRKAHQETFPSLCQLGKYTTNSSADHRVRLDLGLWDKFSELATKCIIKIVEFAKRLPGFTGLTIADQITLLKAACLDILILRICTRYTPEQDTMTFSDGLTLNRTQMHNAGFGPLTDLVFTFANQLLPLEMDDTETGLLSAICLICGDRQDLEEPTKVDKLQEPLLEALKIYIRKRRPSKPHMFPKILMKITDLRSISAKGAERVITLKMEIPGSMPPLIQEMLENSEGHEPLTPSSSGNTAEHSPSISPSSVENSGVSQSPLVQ
Sequence of RARb:RXRa (P19793 whole entry, chain 2 of 2): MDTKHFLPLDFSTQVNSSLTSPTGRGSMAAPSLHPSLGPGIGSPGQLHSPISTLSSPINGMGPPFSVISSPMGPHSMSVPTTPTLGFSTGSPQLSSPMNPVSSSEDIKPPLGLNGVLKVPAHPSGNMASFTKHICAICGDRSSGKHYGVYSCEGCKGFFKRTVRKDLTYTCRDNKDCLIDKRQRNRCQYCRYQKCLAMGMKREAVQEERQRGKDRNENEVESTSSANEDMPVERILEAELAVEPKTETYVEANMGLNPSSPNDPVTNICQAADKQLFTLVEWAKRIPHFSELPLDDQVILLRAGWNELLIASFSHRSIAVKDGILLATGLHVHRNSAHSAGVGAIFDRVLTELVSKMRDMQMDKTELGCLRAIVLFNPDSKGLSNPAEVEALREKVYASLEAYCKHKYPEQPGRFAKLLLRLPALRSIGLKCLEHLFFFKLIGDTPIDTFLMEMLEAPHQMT
Sequence of PPARa:RXRa (Q07869 whole entry, chain 1 of 2): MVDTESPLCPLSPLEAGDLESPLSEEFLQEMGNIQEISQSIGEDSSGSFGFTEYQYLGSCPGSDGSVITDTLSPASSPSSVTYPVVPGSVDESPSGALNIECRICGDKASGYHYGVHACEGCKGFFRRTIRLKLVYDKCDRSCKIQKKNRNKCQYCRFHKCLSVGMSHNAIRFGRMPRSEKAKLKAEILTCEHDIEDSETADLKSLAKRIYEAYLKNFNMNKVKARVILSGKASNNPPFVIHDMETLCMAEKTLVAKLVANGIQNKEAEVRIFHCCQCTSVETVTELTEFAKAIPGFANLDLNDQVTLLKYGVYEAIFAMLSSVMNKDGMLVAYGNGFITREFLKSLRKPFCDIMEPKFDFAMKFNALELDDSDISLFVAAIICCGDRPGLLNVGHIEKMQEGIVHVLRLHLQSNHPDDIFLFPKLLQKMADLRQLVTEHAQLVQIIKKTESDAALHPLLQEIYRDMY
Sequence of PPARa:RXRa (P19793 whole entry, chain 2 of 2): as the sequence (P19793 whole entry, chain 2 of 2) above
Sequence of LXRa:RXRa (Q13133 whole entry, chain 1 of 2): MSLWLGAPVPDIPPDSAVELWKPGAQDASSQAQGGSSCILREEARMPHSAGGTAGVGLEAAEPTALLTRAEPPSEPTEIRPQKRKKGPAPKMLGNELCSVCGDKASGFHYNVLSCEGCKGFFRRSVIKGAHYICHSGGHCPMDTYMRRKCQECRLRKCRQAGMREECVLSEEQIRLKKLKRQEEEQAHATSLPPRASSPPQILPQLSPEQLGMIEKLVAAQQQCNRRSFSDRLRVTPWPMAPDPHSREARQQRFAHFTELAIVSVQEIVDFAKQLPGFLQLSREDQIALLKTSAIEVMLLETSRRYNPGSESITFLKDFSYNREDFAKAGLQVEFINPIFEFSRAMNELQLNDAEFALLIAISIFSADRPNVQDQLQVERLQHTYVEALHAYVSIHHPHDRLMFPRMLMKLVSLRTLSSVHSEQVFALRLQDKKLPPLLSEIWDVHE
Sequence of LXRa:RXRa (P19793 whole entry, chain 2 of 2): as the sequence (P19793 whole entry, chain 2 of 2) above
Sequence of RXRa (P19793 whole entry): as the sequence (P19793 whole entry, chain 2 of 2) above
Sequence of RARg:RXRa (P13631 whole entry, chain 1 of 2): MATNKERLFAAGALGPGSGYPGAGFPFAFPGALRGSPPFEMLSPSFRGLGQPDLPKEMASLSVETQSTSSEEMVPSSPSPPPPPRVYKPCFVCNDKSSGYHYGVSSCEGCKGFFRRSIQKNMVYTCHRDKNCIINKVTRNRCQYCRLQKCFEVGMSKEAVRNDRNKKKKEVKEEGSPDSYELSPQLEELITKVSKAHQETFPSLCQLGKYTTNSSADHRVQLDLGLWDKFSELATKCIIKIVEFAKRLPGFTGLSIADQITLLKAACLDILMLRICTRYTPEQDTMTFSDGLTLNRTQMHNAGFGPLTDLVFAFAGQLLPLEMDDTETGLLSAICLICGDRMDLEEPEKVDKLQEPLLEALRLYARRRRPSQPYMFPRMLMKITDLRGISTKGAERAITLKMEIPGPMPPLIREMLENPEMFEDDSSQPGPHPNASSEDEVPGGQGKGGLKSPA
Sequence of RARg:RXRa (P19793 whole entry, chain 2 of 2): as the sequence (P19793 whole entry, chain 2 of 2) above

One series has as its target RXRa (Homo sapiens, UniProt P19793). The experiment in a line: no ligand; PBM; 180 nM; PBS pH 7.4, 2% milk, 0.02% Triton X-100, 1 mM DTT, BSA, 0.4 mg/ml salmon testes DNA. Particulars: tags: His cleaved; chain copies: 2; label: surface-attached array probe.
For B1, the binding signal was -0.61 PBM z-score against 500 random probes.

For B2, the binding signal was -0.45 PBM z-score against 500 random probes.

For B3, the binding signal was 0.27 PBM z-score against 500 random probes.

Take B4: the binding signal is 0.29 PBM z-score against 500 random probes.

B5: the binding signal was -0.01 PBM z-score against 500 random probes.

Another series deals with RARb:RXRa (Homo sapiens, UniProt P10826;P19793 full;full). As to the kind of experiment: no ligand; PBM; 270 nM : 90 nM RXRa; PBS pH 7.4, 2% milk, 0.02% Triton X-100, 1 mM DTT, BSA, 0.4 mg/ml salmon testes DNA. The note with it: tags: His kept;His cleaved; copies: 1;1; label: surface-attached array probe. Put shortly:
(§1)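 Binding buffer was PBS pH 7.4 with 2% milk, 0.02% Triton X-100, 1 mM DTT, 0.2 mg/mL BSA and 0.4 mg/ml salmon testes DNA. In it, ligand-free nuclear receptor dimers were incubated 1 h on custom Agilent 4×180K protein-binding microarrays carrying double-stranded probes. Antibodies against each partner (one per run) detected binding, and z-scores were calculated against random background probes after regression normalization of scanned fluorescence.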
As to B3, the binding signal is -0.16 PBM z-score against 500 random probes.

B6: the binding signal was -0.53 PBM z-score against 500 random probes.

In the case of B7, the binding signal was 5.98 PBM z-score against 500 random probes.

For the molecule B5, the binding signal was -0.1 PBM z-score against 500 random probes.

The next series has as its target LXRa:RXRa (Homo sapiens, UniProt Q13133;P19793 full;full). The series is described as above. Particulars: tags: His kept;His cleaved; copies: 1;1; label: surface-attached array probe. Put shortly: as §1
As to B8, the binding signal was -0.81 PBM z-score against 500 random probes.

Regarding B1, the binding signal was -1 PBM z-score against 500 random probes.

With B2, the binding signal is -1.08 PBM z-score against 500 random probes.

As for B9, the binding signal was -0.46 PBM z-score against 500 random probes.

As to B10, the binding signal was -0.19 PBM z-score against 500 random probes.

Consider B11, for which the binding signal was -0.69 PBM z-score against 500 random probes.

For B12, the binding signal was 8.13 PBM z-score against 500 random probes.

B13: the binding signal is -0.49 PBM z-score against 500 random probes.

On to B14, for which the binding signal was -0.9 PBM z-score against 500 random probes.

As to B3, the binding signal is 0.05 PBM z-score against 500 random probes.

With B6, the binding signal was -0.36 PBM z-score against 500 random probes.

Turning to B15, the binding signal was -0.25 PBM z-score against 500 random probes.

As to B16, the binding signal is -0.4 PBM z-score against 500 random probes.

With B17, the binding signal was -0.63 PBM z-score against 500 random probes.

Turning to B18, the binding signal is -0.32 PBM z-score against 500 random probes.

Regarding B19, the binding signal is -0.61 PBM z-score against 500 random probes.

Regarding B7, the binding signal is 6.86 PBM z-score against 500 random probes.

B4: the binding signal was 0.25 PBM z-score against 500 random probes.

Take B20: the binding signal is 0.15 PBM z-score against 500 random probes.

For the molecule B21, the binding signal is 0.31 PBM z-score against 500 random probes.

Turning to B22, the binding signal was -0.59 PBM z-score against 500 random probes.

As to B5, the binding signal was -0.13 PBM z-score against 500 random probes.

With B23, the binding signal was 7.1 PBM z-score against 500 random probes.

As for B24, the binding signal was 6.61 PBM z-score against 500 random probes.

The target of a further series is PPARa:RXRa (Homo sapiens, UniProt Q07869;P19793 full;full). Described as above. Particulars: tags: GST kept;His cleaved; copies: 1;1; label: surface-attached array probe. Put shortly:
as §1
As to B11, the binding signal was -0.62 PBM z-score against 500 random probes.

B7: the binding signal was 6.5 PBM z-score against 500 random probes.

As for B4, the binding signal is 0.24 PBM z-score against 500 random probes.

As for B20, the binding signal is -0.15 PBM z-score against 500 random probes.

Turning to B23, the binding signal is 6.67 PBM z-score against 500 random probes.

In a further series the target is FXR:RXRa (Homo sapiens, UniProt Q96RI1;P19793 full;full). Described as above. Particulars: tags: His kept;His cleaved; copies: 1;1; label: surface-attached array probe. An outline of the steps: as §1
Sequence of FXR:RXRa (Q96RI1 whole entry, chain 1 of 2): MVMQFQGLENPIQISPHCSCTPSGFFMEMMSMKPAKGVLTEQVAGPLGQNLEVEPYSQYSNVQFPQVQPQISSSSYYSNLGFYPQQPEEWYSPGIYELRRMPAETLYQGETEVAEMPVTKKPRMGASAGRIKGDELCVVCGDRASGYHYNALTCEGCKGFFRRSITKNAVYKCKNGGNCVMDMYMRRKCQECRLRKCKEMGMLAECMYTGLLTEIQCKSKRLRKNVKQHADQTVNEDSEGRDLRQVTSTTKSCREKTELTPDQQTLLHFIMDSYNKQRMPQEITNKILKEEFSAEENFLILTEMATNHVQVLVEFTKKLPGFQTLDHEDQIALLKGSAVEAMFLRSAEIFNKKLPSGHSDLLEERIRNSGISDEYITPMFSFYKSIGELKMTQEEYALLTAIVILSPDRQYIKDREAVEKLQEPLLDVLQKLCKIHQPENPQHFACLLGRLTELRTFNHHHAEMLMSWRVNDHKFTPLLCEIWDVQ
Sequence of FXR:RXRa (P19793 whole entry, chain 2 of 2): as the sequence (P19793 whole entry, chain 2 of 2) above
Take B10: the binding signal is -0.16 PBM z-score against 500 random probes.

As to B17, the binding signal was -0.63 PBM z-score against 500 random probes.

Consider B7, for which the binding signal was 7.82 PBM z-score against 500 random probes.

On to B21, for which the binding signal was 0.23 PBM z-score against 500 random probes.

Regarding B5, the binding signal is 0.11 PBM z-score against 500 random probes.

With B24, the binding signal was 8.14 PBM z-score against 500 random probes.

The next series concerns the target RARg:RXRa (Homo sapiens, UniProt P13631;P19793 full;full). Described as above. The note with it: tags: His kept;His cleaved; copies: 1;1; label: surface-attached array probe. Put shortly:
as §1
For B1, the binding signal is -0.94 PBM z-score against 500 random probes.

Regarding B12, the binding signal was 4.2 PBM z-score against 500 random probes.
